US10160948B2, “Pluripotent embryonic-like stem cells, compositions, methods and uses thereof” (ABT HOLDING COMPANY, priority 1999, dated 2018)

Legend:
pluripotent stem cells = assay: Proliferation and phenotypic responses to bioactive factors: pluripotent cells; type: cell-based
Source text: (§1) Having access to mixed populations of progenitor stem cells, progenitor stem cell clones, and pluripotent stem cell clones permits one to address the influence of various bioactive factors (e.g. recombinant growth factors, purified compounds, and novel inductive factors) on the growth characteristics and phenotypic expression of these stem cells.
Cryopreserved cells are thawed and plated in MSC-1 at 5, 10, or 20×10^3 cells per well of gelatinized 24-well plates following the standard protocol. Twenty-four hours after initial plating the medium is changed to testing medium (TM) 1 to 6 (TM-1, TM-2, TM-3, TM-4, TM-5, or TM-6). TM-1 to TM-4 consist of Ultraculture (cat. no. 12-725B, lot. nos. OMO455 [TM-1], 1M1724 [TM-2], 2M0420 [TM-3], or 2M0274 [TM-4], Bio-Whittaker, Walkersville, Md.), medium (EMEM or Opti-MEM 0.01 mM β-mercaptoethanol), and 1% (v/v) antibiotic-antimycotic, pH 7.4. TM-5 consists of 98% (v/v) medium, 1% (v/v) HS, and 1% (v/v) antibiotic-antimycotic, pH 7.4. TM-6 consists of 98.5% (v/v) medium, 0.5% (v/v) HS, and 1% (v/v) antibiotic-antimycotic, pH 7.4. […] Four testing media (TM#'s 1-4), each containing various concentrations of Ultraculture, were used as. […] The four Ultraculture-based testing media were: TM-1=15% (v/v) Ultraculture (Lot no. OMO455): 84% (v/v) medium: 1% (v/v) antibiotics; TM-2=15% (v/v) Ultraculture (Lot no. 1M1724): 84% (v/v) medium: 1% (v/v) antibiotics; TM-3=50% (v/v) Ultraculture (Lot no. 2M0420): 49% (v/v) medium: 1% (v/v) antibiotics; and TM-4=75% (v/v) Ultraculture (Lot no. 2M0274): 24% (v/v) medium: 1% (v/v) antibiotics. Pre-incubation for 24 hr in testing medium alone is used to wash out any potential synergistic components in the MSC-1 medium. Twenty-four hours later the testing medium is changed to one of the following. For controls, TM-1 to TM-6 alone is used. To identify clones of progenitor cells, the medium is replaced with TM-1 to TM-6 containing 2 μg/ml insulin (Sigma), an agent that accelerates the appearance of phenotypic expression markers in progenitor cells (TABLE 12). […]

progenitor stem cells = assay: Proliferation and phenotypic responses to bioactive factors: progenitor cells; type: cell-based
Source text: as §1
Cryopreserved cells are thawed and plated in MSC-1 at 5, 10, or 20×10^3 cells per well of gelatinized 24-well plates following the standard protocol. Twenty-four hours after initial plating the medium is changed to testing medium (TM) 1 to 6 (TM-1, TM-2, TM-3, TM-4, TM-5, or TM-6). TM-1 to TM-4 consist of Ultraculture (cat. no. 12-725B, lot. nos. OMO455 [TM-1], 1M1724 [TM-2], 2M0420 [TM-3], or 2M0274 [TM-4], Bio-Whittaker, Walkersville, Md.), medium (EMEM or Opti-MEM 0.01 mM β-mercaptoethanol), and 1% (v/v) antibiotic-antimycotic, pH 7.4. TM-5 consists of 98% (v/v) medium, 1% (v/v) HS, and 1% (v/v) antibiotic-antimycotic, pH 7.4. TM-6 consists of 98.5% (v/v) medium, 0.5% (v/v) HS, and 1% (v/v) antibiotic-antimycotic, pH 7.4. […] Four testing media (TM#'s 1-4), each containing various concentrations of Ultraculture, were used as. […]

[1] = presence and approximate distribution of differentiated phenotypes within the culture wells

B1: PDECGF: Platelet-derived endothelial cell growth factor (protein, UniProt P19971 11-482, looked up)
Thymidine phosphorylase: APPAPGDFSGEGSQGLPDPSPEPKQLPELIRMKRDGGRLSEADIRGFVAAVVNGSAQGAQIGAMLMAIRLRGMDLEETSVLTQALAQSGQQLEWPEAWRQQLVDKHSTGGVGDKVSLVLAPALAACGCKVPMISGRGLGHTGGTLDKLESIPGFNVIQSPEQMQVLLDQAGCCIVGQSEQLVPADGILYAARDVTATVDSLPLITASILSKKLVEGLSALVVDVKFGGAAVFPNQEQARELAKTLVGVGASLGLRVAAALTAMDKPLGRCVGHALEVEEALLCMDGAGPPDLRDLVTTLGGALLWLSGHAGTQAQGAARVAAALDDGSALGRFERMLAAQGVDPGLARALCSGSPAERRQLLPRAREQEELLAPADGTVELVRALPLALVLHELGAGRSRAGEPLRLGVGAELLVDVGQRLRRGTPWLRVHRDGPALSGPQSRALQEALVLSDRAPFAAPSPFAELVLPPQQ
In the case of B1, the “Proliferation, Pluripotent: number of times the agent increased the DNA content per well versus its respective control” value (pluripotent stem cells) is reported as 1 times, the “activity on pluripotent and progenitor stem cells, in words” value (pluripotent stem cells; pluripotent and progenitor cells) is reported as “no measurable effect on either progenitor or pluripotent stem cells” and the “Phenotypic Expression, Pluripotent” value (pluripotent stem cells; [1]) is reported as 0. For the same molecule, the “Proliferation, Progenitor: number of times the agent increased the DNA content per well versus its respective control” value (progenitor stem cells) was 1 times and the “Phenotypic Expression, Progenitor” value (progenitor stem cells; [1]) was “All+”.
